# Test results as given in EP4796630A2 (Hugel Inc., dated 2026).
# Numbering of substitutions follows the chain as printed. Values joined by “and” are separate entries in the source; they are usually repeats but may differ in a detail not shown here. Equal values may be shown once.
# B1: C4 IgG (antibody, V domains shown)
# VH: DVKLQESGPGLVKPSQSLSLTCTVTGYSITSDYAWNWIRQFPGNKLEWMGYISYSVGTRYNPSLKSRISITRDTSKNQFFLLLKSVTNEDTATYFCARKGEYGFAYWGQGTLVTVSA
# VL: DIVMTQSPASLAVSLGQRATISCRASKSVSTSGYSYMHWYQQKPGQPPKLLIYLASNLESGVPARFSGSGSGTDFTLNIHPVEEEDAATYYCQHSRELPLTFGAGTKLELK
# B2: C24 IgG (antibody, V domains shown)
# VH: EVKLVESGGGLVQPKGSLKLSCAASGYTFNTYAMNWVRQAPGKGLEWVARIRSKSNNYTTYYADSVKDRFTISRDDSQSMLYLQINNLKTEDTAMYYCVGQILYYYVGSPAWFAYWGQGTLVTVSA
# VL: B1 VL with Y53F, L100W, A104G, L110I
# B3: C16 IgG (antibody, V domains shown)
# VH: EVQLQQSGAELARPGASVQMSCKAFGYTFTNYTMHWVRQRPGQGLEWIGFINPSSDYTNYNQKFKDKATLSADKSSSTAYMQLSSLTSEDSAVYYCARRIFYNGRTYAAMDYWGQGTSVTVSS
# VL: B1 VL with T31S
# notes: also called C16 IgG1
# B4: C7 IgG (antibody, V domains shown)
# VH: QVQLVETGGGLVQPKGSLKLSCAASGFTFNTNAMNWVRQAPGKGLEWVARIRSKSNNYATYYADSVKDRFTISRDDSQSLLYLQMNNLKTEDTAMYYCVYGRSYGGLSYWGQGTLVTVSA
# VL: B1 VL with T31S
# notes: also called C7 IgG2a
# B5: D6 IgG (antibody, V domains shown)
# VH: EVQLQQSGPELVKPGASVKISCKASGYTFTDYNMHWVKQSHGKSLEWIGYIYPYNGDTGYNQKFKSKATLTVDNSSSTAYMELRSLTSEDSAVYYCVRSGDYWGQGTTLTVSS
# VL: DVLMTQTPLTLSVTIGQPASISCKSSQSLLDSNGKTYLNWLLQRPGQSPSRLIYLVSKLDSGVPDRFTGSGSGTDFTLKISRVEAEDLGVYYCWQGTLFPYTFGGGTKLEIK
# B6: B23 IgG (antibody, V domains shown)
# VH: EVQLQQSGAELVRPGASVKLSCTASGINIKDYYMHWMKQRPEQDLEWIGWIDPGNGDAEYAPKFQGKATMTADTSSNTAYLQLSSLTSEDTAVYYCNEIAYWGQGTLVTVSA
# VL: not shown
# notes: also called B23 IgG1
# B7: B4 IgG (antibody, V domains shown)
# VH: EVKLVESGGGLVKPGGSLKLSCAASGFTFSNYGMSWVRQTPEKRLEWVATISSGGSYTYYPDSVKGRFTISRDNAKNTLYLQMSSLRSEDTAMYYCARHEGGGNPYFDYWGQGTTLTVSS
# VL: DVLMTQTPLSLPVSLGDQASISCRSSQSLVHSNGNTYLHWYLQKPGQSPKLLIYKVSNRFSGVPDRFSGSGSGTDFTLKISRVEAEDLGVYFCSQNTLVPWTFGGGTKLEIK
# notes: also called B4 IgG1; clone 4
# B8: D2 IgG (antibody, V domains shown)
# VH: DVKLQESGPGLVKPSQSLSLTCSVTGYSITSGYYWNWIRQFPGNKLEWMGYIRYDGSNNYNPSLKNRISITRDTSKNQFFLKLNSVTTEDTASYYCARDRDSSYYFDYWGQGTALTVSS
# VL: DIVMTQSSSYLSVSLGGRVTITCKASDHINNWLAWYQQKPGNAPRLLISDTTSLETGVPSRFSGSGSGKDYTLSITSLQTEDVATYYCQQYWSAPPTFGGGTKLEIK
# B9: C14 IgG (antibody, V domains shown)
# VH: B4 VH with Q1E, Q3K, T7S, N56D, Q78P, L80M, S108G
# VL: B1 VL with M4L, M37V
# B10: D3 IgG (antibody, V domains shown)
# VH: EVQLEESGGGLVQPGGSLKLSCAASGFTFSNYGMSWVRQTPDKRLELVATINSNGGTTYYPDSVKGRFTISRDNAKNTLYLQMSSLKSEDSAMYYCARDRDAMDYWGQGTSVTVSS
# VL: B7 VL with L29I, H31N, N33H, H39E, F92Y, S94F, N96G, T97S, L98H
# B11: C16 IgG-HRP conjugate (antibody, V domains shown)
# VH: B3 VH
# VL: B1 VL with T31S
# notes: also called C16-HRP; Cg16 IgG-HRP conjugates
# Molecular target: T1, recombinant GST-SNAP25197 (UniProt P60880 1-197)
# Experiment: not given
# T1 sequence (P60880 1-197 limits assumed): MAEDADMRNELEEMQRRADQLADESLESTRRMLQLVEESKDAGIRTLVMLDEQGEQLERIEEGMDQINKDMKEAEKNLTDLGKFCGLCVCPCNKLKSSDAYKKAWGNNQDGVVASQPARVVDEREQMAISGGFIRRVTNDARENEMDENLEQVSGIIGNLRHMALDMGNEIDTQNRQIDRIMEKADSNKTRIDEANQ
Binder,Kd,koff,kon
B1,6530 pM and 17800 pM,0.00148 s⁻¹ and 0.0041 s⁻¹,230000 M⁻¹ s⁻¹ and 227000 M⁻¹ s⁻¹
B2,9620 pM and 5250 pM,0.00509 s⁻¹ and 0.00241 s⁻¹,529000 M⁻¹ s⁻¹ and 458000 M⁻¹ s⁻¹
B3,6440 pM and 9170 pM,0.00152 s⁻¹ and 0.00215 s⁻¹,236000 M⁻¹ s⁻¹ and 235000 M⁻¹ s⁻¹
B4,,,277000 M⁻¹ s⁻¹ and 257000 M⁻¹ s⁻¹

# Molecular target: T2, recombinant GST-SNAP25FL (UniProt P60880 1-206)
# T2 construct: range 1-206; also called SNAP25 206; full-length SNAP25; not shown: GST tag
# Experiment: BLI (Octet Red96), IgG on AMC biosensor, GST-SNAP25FL as analyte; Kdis is the instrument's lowest limit, tentatively given
# T2 sequence (P60880 whole entry): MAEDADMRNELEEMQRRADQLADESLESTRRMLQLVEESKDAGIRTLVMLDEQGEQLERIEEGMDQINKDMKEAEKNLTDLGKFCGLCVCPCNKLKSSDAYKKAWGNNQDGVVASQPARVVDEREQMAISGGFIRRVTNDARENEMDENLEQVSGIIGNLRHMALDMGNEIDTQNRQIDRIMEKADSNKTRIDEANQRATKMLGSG
row,Binder,koff [s⁻¹]
1,B5,≤ 1e-07
2,B6,≤ 1e-07
3,B7,≤ 1e-07
4,B8,≤ 1e-07

# Molecular target: T1, recombinant GST-SNAP25197
# Experiment: direct ELISA; ratio of A450 with SNAP25197 to A450 with SNAP25FL
row,Binder,Ratio197/206
1,B1,919
2,B2,973
3,B3,996
4,B4,1040
5,B9,953
6,B5,0.02
7,B6,0.92
8,B7,0.83
9,B10,12.9
10,B8,0.03

# Molecular target: T3, endogenous SNAP25197 in total cell lysate of BoNT/A-treated N2-42F cells (mouse, UniProt P60879 1-197)
# T3 construct: range 1-197; also called SNAP25197 captured
# Experiment: sandwich ELISA on lysate of BoNT/A-treated N2-42F cells
# T3 sequence (P60879 1-197 limits assumed): as the sequence (P60880 1-197 limits assumed) above
row,Binder,binding result
1,B11,binds

# Molecular target: T2, recombinant GST-SNAP25FL
# Experiment: BLI (Octet Red96), IgG on AMC biosensor, GST-SNAP25FL as analyte
row,Binder,kon [M⁻¹ s⁻¹]
1,B5,35200
2,B6,95800
3,B7,95100
4,B8,164000

# Molecular target: T3, endogenous SNAP25197 in total cell …
# Experiment: sandwich ELISA, plate coated with B4 IgG, lysate of BoNT/A-treated N2-42F cells
row,Binder,binding result
1,B7,binds

# Molecular target: T1, recombinant GST-SNAP25197
# Experiment: not given
# Remark: another data set of the same source
Binder,Kd [pM],koff [s⁻¹]
B1,1.07,1e-07
B2,1.15,1e-07
B4,1.28,1e-07
B9,≤ 1.3,≤ 1e-07
B6,≤ 3.27,≤ 1e-07
B10,≤ 0.9,≤ 1e-07

# Molecular target: T2, recombinant GST-SNAP25FL
# Experiment: BLI (Octet Red96), IgG on AMC biosensor, GST-SNAP25FL as analyte; from tentative Kdis
row,Binder,Kd [pM]
1,B5,≤ 2.84
2,B6,≤ 0.1
3,B7,≤ 0.1
4,B8,≤ 0.61

# Molecular target: T1, recombinant GST-SNAP25197
# Experiment: BLI (Octet Red96), IgG on AMC biosensor, GST-SNAP25197 as analyte
row,Binder,binding result
1,B5,no binding
2,B8,no binding

# Molecular target: T1, recombinant GST-SNAP25197
# Experiment: as above
# Remark: another data set of the same source
Binder,kon [M⁻¹ s⁻¹],Kd [pM],koff [s⁻¹]
B1,92800,,
B2,86800,,
B3,1.6e+06,1.62,2.57e-06
B4,77800,,
B9,76700,,
B6,25400,,
B10,111000,,

# Molecular target: T2, recombinant GST-SNAP25FL
# Experiment: BLI (Octet Red96), IgG on AMC biosensor, GST-SNAP25FL as analyte
# Remark: another data set of the same source
row,Binder,binding result
1,B1,no binding (tested: up to 1 µM)
2,B2,no binding (tested: up to 1 µM)
3,B3,no binding (tested: up to 1 µM)
4,B4,no binding (tested: up to 1 µM)
5,B9,no binding (tested: up to 1 µM)
6,B10,no binding (tested: up to 1 µM)
